Assay results reported in the supplement of paper PMC11908140.

B1: library; numbered along this chain (parent)
chain: MRKPRAAVGSGHRKQAASQEGRQKHAKNNSQAKPSACDGLARQPEEVVLQASVSSYHLFRDVAEVTAFRGSLLSWYDQEKRDLPWRRRAEDEMDLDRRAYAVWVSEVMLQQTQVATVINYYTGWMQKWPTLQDLASASLEEVNQLWAGLGYYSRGRRLQEGARKVVEELGGHMPRTAETLQQLLPGVGRYTAGAIASIAFGQATGVVDGNVARVLCRVRAIGADPSSTLVSQQLWGLAQQLVDPARPGDFNQAAMELGATVCTPQRPLCSQCPVESLCRARQRVEQEQLLASGSLSGSPDVEECAPNTGQCHLCLPPSEPWDQTLGVVNFPRKASRKPPREESSATCVLEQPGALGAQILLVQRPNSGLLAGLWEFPSVTWEPSEQLQRKALLQELQRWAGPLPATHLRHLGEVVHTFSHIKLTYQVYGLALEGQTPVTTVPPGARWLTQEEFHTAAVSTAMKKVFRVYQGQQPGTCMGSKRSQVSSPCSRKKPRMGQQVLDNFFRSHISTDAHSLNSAAQ

Variants of: B1
Experiment: 8OG:A repair function score (normalized; synonymous = 0, nonsense = -1) (normalized log-likelihood score); higher = more repair activity (WT-like)
Conditions: with 8OG:A DNA repair reporter (GFP) in HEK-293 MUTYH KO cells
Description: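 Saturation mutagenesis (NNN codon scan) of the MUTYH cDNA (521-aa nuclear isoform NM_001048174.1 / NP_001041639), stably expressed under doxycycline induction in HEK-293 MUTYH knockout cells. Cells were co-transfected with an 8OG:A-bearing GFP repair reporter plus mCherry and sorted 72 h later into GFP+ and GFP− bins, three replicates per tile. The Rosace log2 enrichment (GFP+ vs GFP−) was converted per tile to a normalized function score with synonymous variants centered at 0 and nonsense variants (codons 1-471) at -1; low-abundance variants were removed.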

8OG:A repair function score: each site, then its substitutions
W85: S -1.22, Q -1.14, N -1.55, M -0.682, A -1.08, Y -0.864, D -1.51, E -1.28, K -3, P -1.05, C -1.57, G -2.15, H -2.53, I -0.792, R -1.51, T -1.61, L -0.917, F -0.238, V -1.12
S74: T -0.0089, P 0.00278, V -0.0223, K -0.0253, Y 0.00544, E 0.00141, H 0.00229, G -0.00226, I -0.0694, C -0.0037, Q 0.00637, D -0.132, W -0.0127, L -0.0187, R 0.00425, M 0.00605, N -0.0112, F -0.0182
L72: E -1.21, D -1.11, R -1.65, C -0.229, Y -1.03, Q -1.44, P -1.34, A -0.207, F -1.08, K -1.1, T -0.206, H -1.08, W -0.994, I -0.0959, S -0.775, V -0.446, N -2.41, G -1.17, M -0.732
P84: K -0.876, G -0.775, T -0.154, H -0.482, Y -0.697, D -0.332, F -0.723, S -0.324, L -0.233, M -1.8, W -1.29, E -0.125, N -0.796, R -1.06, A -0.138, I -0.257, Q -0.242, C -0.445, V -0.206
Q78: F -0.0455, D -0.00768, I -0.00974, L -0.0196, M -0.517, R 0.00285, G -0.0331, N -0.105, W -0.0301, C -0.996, A -0.00817, Y -0.12, H -0.0658, P -0.138, S 0.00682, K -0.0833, V 0.00652, E 0.00685, T -0.00936
R88: C -0.0122, E -0.00364, P -0.00404, V -0.0028, N -0.0146, M -0.0202, S -0.00167, F -0.00866, H 0.0048, L 0.00676, K -0.364, T 0.00666, D -0.0653, A 0.00657, Y -0.0224, W -0.0355, I 0.00568, G -0.107, Q -0.0232
A89: F -0.0315, G -0.0247, H 0.00693, I -0.0304, D -0.0385, M 0.00504, L 0.00692, E -0.00662, K -0.0427, C -0.0299
K80: V -0.423, Y -0.271, H 0.00371, F -0.364, P -0.105, C -0.0206, S -0.227, I -0.35, A -7.55e-05, T -0.469, R -0.0152, D -1.37, G -0.194, M -0.162, E -0.31, Q -0.0315, W -0.847, L -0.278, N -0.162
W75: C -1.25, D -3.7, V -1.78, L -2.04, A -1.3, E -1.57, T -3.63, G -1.2, S -1.58, I -2.41, Q -1.46, H -0.412, M -1.05, R -1.13, P -3.8, Y -0.448, F -0.21, K -1.2, N -2.91
Y76: I -1.28, A -1.05, L -1.17, R -1.37, F -0.0268, T -1.06, V -1.41, N -1.1, H -0.27, K -1.41, P -1.8, Q -1.53, M -1.2, C -1.48, G -1.14, E -1.5, D -1.25, W -0.136, S -1.16
L83: G -0.971, C -0.323, P -0.673, E -0.902, D -1.02, N -0.585, S -0.387, V -0.316, F -0.285, M -0.533, W -0.827, I -0.196, H -0.597, A -0.379, T -0.104, K -0.987, Q -0.947, R -0.559, Y -0.478
R86: C -0.587, F -1.75, T -0.606, I -0.915, Q -2.68, M -1.93, N -1.17, L -0.926, Y -1.03, H -1.85, V -1.33, G -1.82, W -1.23, S -1.03, A -0.934, E -2.16, P -0.841, K -0.756, D -1.26
R87: G -0.0274, K 0.00471, M -0.0864, I -0.0226, S 0.00689, V -0.0326, N -0.000681, Q -0.219, H -0.0676, E -0.0603, D -0.0278, F -0.0196, A -0.0289, L -0.0416, W -0.0564, T -0.0213, Y -0.052, C -0.0638, P -0.0432
D82: W -0.00177, Q -0.0442, N 0.00375, H -0.148, T -0.0186, P -0.00741, G -0.0955, L -0.0723, S -0.0969, Y -0.0661, R -0.0624, C -0.0489, I -0.0384, V -0.0236, K -0.079, A -0.0548, M -0.077, F -0.22, E -0.035
D77: Q -0.0294, Y -0.0402, V -0.0835, I -0.0954, G -0.0368, P -0.464, M -0.0782, C -0.0754, K -0.0637, W -0.0696, A -0.0463, E -0.0615, S -0.0758, T -0.0415, N -0.122, F -0.0355, L -0.131, H -0.228, R -0.122
S71: W 0.000735, Y -0.0584
E79: S -0.00165, Y -0.00762, R 0.00654, T 0.00587, C -0.0344, H -0.0574, N -0.0384, W -0.0018, P -0.189, L -0.0186, F 0.000542, A 0.00477, I 0.00691, D -0.145, Q -0.0185, V -0.000865, K 0.0062, G -0.00351, M -0.00235
R81: Y -0.359, Q -0.483, F -1.5, N -0.365, V -0.851, W -0.422, H -0.3, I -0.704, G -0.905, M -0.492, A -0.345, L -0.31, P -0.88, S -0.535, C -1.02, E -0.678, T -0.765, K -0.209, D -0.524
L73: N -0.718, K -0.453, F -0.261, V -0.108, Y -2.08, I -0.0679, M -0.0108, Q -0.236, G -0.786, C -0.0699, S -0.594, A -0.307, P -1.57, R -0.593, E -0.46, T -0.136, D -1.01, H -0.344, W -0.824
